Measured values as given in article PMC10837151.

Target: asymmetric nucleosome with H2B-Ser6 tri-ADP-ribose on one side only (Nuc-H2B-ADPr3) (Xenopus laevis | not stated) (UniProt P02281)
Experiment: cryo-EM structure; modified nucleosomes at 1 µM, ALC1 at 6 µM, ADP-BeF3 at 1 mM, incubated 60 minutes on ice before vitrification

ALC1 (Amplified in Liver Cancer 1), wild-type construct (16-879), sequence (Q86WJ1 16-879): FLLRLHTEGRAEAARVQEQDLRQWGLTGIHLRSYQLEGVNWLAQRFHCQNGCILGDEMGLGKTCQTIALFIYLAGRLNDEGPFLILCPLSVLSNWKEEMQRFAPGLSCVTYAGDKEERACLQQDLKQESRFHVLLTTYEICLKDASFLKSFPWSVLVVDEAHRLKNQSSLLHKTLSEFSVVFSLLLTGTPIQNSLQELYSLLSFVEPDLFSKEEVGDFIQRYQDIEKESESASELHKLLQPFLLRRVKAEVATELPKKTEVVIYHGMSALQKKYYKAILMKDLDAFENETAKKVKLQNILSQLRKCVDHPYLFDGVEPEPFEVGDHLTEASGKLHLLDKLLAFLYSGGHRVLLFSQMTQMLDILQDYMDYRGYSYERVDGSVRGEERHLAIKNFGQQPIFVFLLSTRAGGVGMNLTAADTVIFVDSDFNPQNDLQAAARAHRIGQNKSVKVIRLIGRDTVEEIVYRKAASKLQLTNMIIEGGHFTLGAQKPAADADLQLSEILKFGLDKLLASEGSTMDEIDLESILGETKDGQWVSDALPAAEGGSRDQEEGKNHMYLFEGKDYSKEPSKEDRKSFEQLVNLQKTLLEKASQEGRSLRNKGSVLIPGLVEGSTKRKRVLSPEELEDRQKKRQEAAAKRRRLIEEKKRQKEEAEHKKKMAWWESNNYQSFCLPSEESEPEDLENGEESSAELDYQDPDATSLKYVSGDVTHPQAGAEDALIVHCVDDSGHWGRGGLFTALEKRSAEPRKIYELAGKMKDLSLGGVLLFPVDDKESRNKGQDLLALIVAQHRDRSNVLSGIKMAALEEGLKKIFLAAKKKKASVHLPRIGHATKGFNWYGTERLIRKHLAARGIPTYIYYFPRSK

- stoichiometry N: 1
Substance: ALC1 (Amplified in Liver Cancer 1), wild-type construct (16-879) (from UniProt Q86WJ1 16-879) (enzyme)
